# Data: paper PMC6355839, “Functional role of PGAM5 multimeric assemblies and their polymerization into filaments” (Nature Communications, 2019)
# B1: ∆90 PGAM5 H105A (residues 91–289), catalytically dead phosphatase domain (domain or fragment, UniProt Q96HS1 91-289, looked up)
# chain: HYKAKATRHIFLIRASQYHVDGSLEKDRTLTPLGREQAELTGLRLASLGLKFNKIVHSSMTRAIETTDIISRHLPGVCKVSTDLLREGAPIEPDPPVSHWKPEAVQYYEDGARIEAAFRNYIHRADARQEEDSYEIFICHANVIRYIVCRALQFPPEGWLRLSLNNGSITHLVIRPNGRVALRTLGDTGFMPPDKITRS
# notes: PGAM5 long isoform (PGAM5L), residues 91-289, phosphatase domain, H105A; His6 followed by a TEV site (ENLYFQS); cleavage not described; also called Δ90 PGAM5 H105A; ∆90 H105A PGAM5; source: E. coli BL21 DE3 pLysS, purified (Ni-NTA, SEC)
# Experiments:
# [1] = biological target: B1; assay: crystal structure; ∆90 H105A PGAM5 7.5 mg/mL with ASK1 peptide:MM peptide:protein 3:3:1; 100 mM Tris-Cl pH 7.0, 200 mM MgCl2, 10% PEG 8000; 2.6 Å; twelve molecules in the asymmetric unit; details: both partners purified
# [2] = biological target: the molecule itself; assay: cell-based or functional assay
# [3] = biological target: the molecule itself; assay: SEC; Superose 6 10/300 GL Increase; 20 mM Tris-Cl pH 8.0, 150 mM NaCl, 0.5 mM TCEP; salt titration up to 1 M NaCl
# [4] = biological target: the molecule itself; assay: cryo-EM structure; 2D class averages only (top view, 4.5 Å); 0.10 mg/mL in 20 mM Tris-Cl pH 8.0, 600 mM NaCl, 0.5 mM TCEP
# [5] = biological target: the molecule itself; assay: negative-stain electron microscopy; samples from SEC peaks (~0.01–0.1 mg/mL), 0.75% uranyl formate; 150 mM NaCl buffer; filaments decompose into rings at 300 and 750 mM NaCl
# [6] = biological target: the molecule itself; assay: crystal structure; ∆90 H105A PGAM5 5 mg/mL with ASK1 peptide 5:1, without MM peptide; 100 mM HEPES pH 7.5, 200 mM MgCl2, 30% PEG 400; 1.7 Å; two molecules in the asymmetric unit
# [7] = biological target: the molecule itself; assay: crystal structure; ∆90 H105A PGAM5 7.5 mg/mL with ASK1 peptide:MM peptide:protein 3:3:1; 100 mM Tris-Cl pH 7.0, 200 mM MgCl2, 10% PEG 8000; 2.6 Å; twelve molecules in the asymmetric unit
Binder,Kcat/Km of dephosphorylation of the ASK1 phosphopeptide (20 nM enzyme) [2] [M⁻¹ s⁻¹],stoichiometry N [3],also measured
"GPGVWDPNWDRREP (PGAM5 linker domain residues 54-67, holding the multimerization motif WDxxWD (58-63); source: synthetic peptide, bought: Elim Biopharma) [PGAM5 MM peptide (linker domain residues 54–67, multimerization motif)]",–,–,binding result [1]: binds
"∆48 PGAM5 (residues 49–289), wild type (domain or fragment, UniProt Q96HS1 49-289, looked up, PGAM5 long isoform (PGAM5L, residues 1-289), residues 49-289: linker domain with the multimerization motif (58-63) and the PGAM phosphatase domain; His6 is followed by a TEV site (ENLYFQS); the methods describe no TEV cleavage; also called Δ48 PGAM5; ∆48 WT; source: E. coli BL21 DE3 pLysS, purified (Ni-NTA, SEC on Superose 6)) GGARPGPGVWDPNWDRREPLSLINVRKRNVESGEEELASKLDHYKAKATRHIFLIRHSQYHVDGSLEKDRTLTPLGREQAELTGLRLASLGLKFNKIVHSSMTRAIETTDIISRHLPGVCKVSTDLLREGAPIEPDPPVSHWKPEAVQYYEDGARIEAAFRNYIHRADARQEEDSYEIFICHANVIRYIVCRALQFPPEGWLRLSLNNGSITHLVIRPNGRVALRTLGDTGFMPPDKITRS",19800,2,stoichiometry N [4]: 12
"∆48 PGAM5 Y198E (domain or fragment, UniProt Q96HS1 49-289, looked up, PGAM5 long isoform (PGAM5L), residues 49-289, Y198E; also called ∆48 Y198E; source: E. coli BL21 DE3 pLysS, purified (Ni-NTA, SEC)) GGARPGPGVWDPNWDRREPLSLINVRKRNVESGEEELASKLDHYKAKATRHIFLIRHSQYHVDGSLEKDRTLTPLGREQAELTGLRLASLGLKFNKIVHSSMTRAIETTDIISRHLPGVCKVSTDLLREGAPIEPDPPVSHWKPEAVQYEEDGARIEAAFRNYIHRADARQEEDSYEIFICHANVIRYIVCRALQFPPEGWLRLSLNNGSITHLVIRPNGRVALRTLGDTGFMPPDKITRS",10000,2,–
"∆48 PGAM5 R65A (domain or fragment, UniProt Q96HS1 49-289, looked up, PGAM5 long isoform (PGAM5L), residues 49-289, R65A; also called ∆48 R65A; source: E. coli BL21 DE3 pLysS, purified (Ni-NTA, SEC)) GGARPGPGVWDPNWDRAEPLSLINVRKRNVESGEEELASKLDHYKAKATRHIFLIRHSQYHVDGSLEKDRTLTPLGREQAELTGLRLASLGLKFNKIVHSSMTRAIETTDIISRHLPGVCKVSTDLLREGAPIEPDPPVSHWKPEAVQYYEDGARIEAAFRNYIHRADARQEEDSYEIFICHANVIRYIVCRALQFPPEGWLRLSLNNGSITHLVIRPNGRVALRTLGDTGFMPPDKITRS",3170,2,–
"∆48 PGAM5 R269E (domain or fragment, UniProt Q96HS1 49-289, looked up, PGAM5 long isoform (PGAM5L), residues 49-289, R269E; source: E. coli BL21 DE3 pLysS, purified (Ni-NTA, SEC)) GGARPGPGVWDPNWDRREPLSLINVRKRNVESGEEELASKLDHYKAKATRHIFLIRHSQYHVDGSLEKDRTLTPLGREQAELTGLRLASLGLKFNKIVHSSMTRAIETTDIISRHLPGVCKVSTDLLREGAPIEPDPPVSHWKPEAVQYYEDGARIEAAFRNYIHRADARQEEDSYEIFICHANVIRYIVCRALQFPPEGWLRLSLNNGSITHLVIRPNGEVALRTLGDTGFMPPDKITRS",–,–,binding result [5]: binds
"∆48 PGAM5 A4 (WDxxWD of the MM replaced by AAxxAA) (domain or fragment, UniProt Q96HS1 49-289, looked up, PGAM5 long isoform (PGAM5L), residues 49-289, W58A/D59A/W62A/D63A; also called ∆48 A4; A4 mutant; source: E. coli BL21 DE3 pLysS, purified (Ni-NTA, SEC)) GGARPGPGVAAPNAARREPLSLINVRKRNVESGEEELASKLDHYKAKATRHIFLIRHSQYHVDGSLEKDRTLTPLGREQAELTGLRLASLGLKFNKIVHSSMTRAIETTDIISRHLPGVCKVSTDLLREGAPIEPDPPVSHWKPEAVQYYEDGARIEAAFRNYIHRADARQEEDSYEIFICHANVIRYIVCRALQFPPEGWLRLSLNNGSITHLVIRPNGRVALRTLGDTGFMPPDKITRS",–,2,–
"∆48 PGAM5 R288E (domain or fragment, UniProt Q96HS1 49-289, looked up, PGAM5 long isoform (PGAM5L), residues 49-289, R288E; also called ∆48 R288E; source: E. coli BL21 DE3 pLysS, purified (Ni-NTA, SEC)) GGARPGPGVWDPNWDRREPLSLINVRKRNVESGEEELASKLDHYKAKATRHIFLIRHSQYHVDGSLEKDRTLTPLGREQAELTGLRLASLGLKFNKIVHSSMTRAIETTDIISRHLPGVCKVSTDLLREGAPIEPDPPVSHWKPEAVQYYEDGARIEAAFRNYIHRADARQEEDSYEIFICHANVIRYIVCRALQFPPEGWLRLSLNNGSITHLVIRPNGRVALRTLGDTGFMPPDKITES",13700,–,stoichiometry N [5]: 12
"∆48 PGAM5 H105A (domain or fragment, UniProt Q96HS1 49-289, looked up, PGAM5 long isoform (PGAM5L), residues 49-289, H105A; also called ∆48 H105A; source: E. coli BL21 DE3 pLysS, purified (Ni-NTA, SEC)) GGARPGPGVWDPNWDRREPLSLINVRKRNVESGEEELASKLDHYKAKATRHIFLIRASQYHVDGSLEKDRTLTPLGREQAELTGLRLASLGLKFNKIVHSSMTRAIETTDIISRHLPGVCKVSTDLLREGAPIEPDPPVSHWKPEAVQYYEDGARIEAAFRNYIHRADARQEEDSYEIFICHANVIRYIVCRALQFPPEGWLRLSLNNGSITHLVIRPNGRVALRTLGDTGFMPPDKITRS",–,–,binding result [3]: binds
"∆90 PGAM5 (residues 91–289), isolated phosphatase domain, wild type (domain or fragment, UniProt Q96HS1 91-289, looked up, PGAM5 long isoform (PGAM5L), residues 91-289, phosphatase domain; His6 followed by a TEV site (ENLYFQS); cleavage not described; also called Δ90 PGAM5; source: E. coli BL21 DE3 pLysS, purified (Ni-NTA, SEC on Superose 6)) HYKAKATRHIFLIRHSQYHVDGSLEKDRTLTPLGREQAELTGLRLASLGLKFNKIVHSSMTRAIETTDIISRHLPGVCKVSTDLLREGAPIEPDPPVSHWKPEAVQYYEDGARIEAAFRNYIHRADARQEEDSYEIFICHANVIRYIVCRALQFPPEGWLRLSLNNGSITHLVIRPNGRVALRTLGDTGFMPPDKITRS",–,2,–
B1,–,–,stoichiometry N [6]: 2; stoichiometry N [7]: 12
